Holding throughout (assay): high-throughput RNA pulldown from lysate on Ni-NTA beads; HRP: 50 mM Tris pH 8, 150 mM NaCl, 1 mM beta-mercaptoethanol, 50 ug/ml BSA, 3 ug/ml yeast RNA, 0.5% heparin; ITC and FP: Tris pH 8, 200 mM KCl, 5% glycerol; MST: 50 mM Tris pH 8, 200 mM NaCl, 1 mM DTT, BSA, heparin, 0.05% Tween 20
Common to all, as to settings: tags: N-terminal His-eGFP

In series [1] the target is T1, GFP-9S library array, motif 4 ND N98R;D124G (synthetic construct, N98R;D124G).
T1 chain: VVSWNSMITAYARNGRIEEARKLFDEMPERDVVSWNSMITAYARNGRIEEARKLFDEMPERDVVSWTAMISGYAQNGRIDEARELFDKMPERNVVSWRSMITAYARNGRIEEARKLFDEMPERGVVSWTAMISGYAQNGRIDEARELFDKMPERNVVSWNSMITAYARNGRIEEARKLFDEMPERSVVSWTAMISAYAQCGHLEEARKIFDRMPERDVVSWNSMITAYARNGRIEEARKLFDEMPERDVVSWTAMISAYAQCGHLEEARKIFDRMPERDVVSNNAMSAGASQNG

For series [2], the target named is T2, GFP-9S library array, motif 4 ND N98K;D124S (synthetic construct, N98K;D124S).
T2 chain: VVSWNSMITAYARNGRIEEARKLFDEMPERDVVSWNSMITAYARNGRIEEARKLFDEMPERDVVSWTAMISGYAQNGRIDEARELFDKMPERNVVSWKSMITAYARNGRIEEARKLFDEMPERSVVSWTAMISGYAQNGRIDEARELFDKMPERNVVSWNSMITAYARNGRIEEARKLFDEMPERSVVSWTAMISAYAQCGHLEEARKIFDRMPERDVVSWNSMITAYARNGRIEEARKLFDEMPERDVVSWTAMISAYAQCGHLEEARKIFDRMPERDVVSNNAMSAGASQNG

For series [3], the target named is T3, GFP-9S library array, motif 4 ND N98W;D124R (synthetic construct, N98W;D124R).
T3 chain: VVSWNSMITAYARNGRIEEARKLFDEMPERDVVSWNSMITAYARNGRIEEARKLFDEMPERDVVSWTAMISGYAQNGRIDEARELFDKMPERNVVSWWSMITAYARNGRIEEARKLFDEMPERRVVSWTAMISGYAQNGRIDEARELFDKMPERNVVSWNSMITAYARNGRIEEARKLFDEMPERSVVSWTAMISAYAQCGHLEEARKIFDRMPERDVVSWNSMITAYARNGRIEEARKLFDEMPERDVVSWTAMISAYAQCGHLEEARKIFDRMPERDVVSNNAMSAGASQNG

Series [4] deals with T4, GFP-9S library array, motif 4 ND N98G;D124W (synthetic construct, N98G;D124W).
T4 chain: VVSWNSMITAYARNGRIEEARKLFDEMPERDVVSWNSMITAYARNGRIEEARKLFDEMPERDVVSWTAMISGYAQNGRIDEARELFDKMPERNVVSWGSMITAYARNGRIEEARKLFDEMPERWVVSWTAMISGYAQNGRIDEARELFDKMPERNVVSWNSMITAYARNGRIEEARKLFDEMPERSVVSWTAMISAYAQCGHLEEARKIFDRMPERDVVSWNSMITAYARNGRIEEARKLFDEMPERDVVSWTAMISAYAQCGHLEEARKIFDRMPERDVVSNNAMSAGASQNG

Series [5] addresses T5, GFP-9S library array, motif 4 ND N98G (synthetic construct, N98G).
T5 chain: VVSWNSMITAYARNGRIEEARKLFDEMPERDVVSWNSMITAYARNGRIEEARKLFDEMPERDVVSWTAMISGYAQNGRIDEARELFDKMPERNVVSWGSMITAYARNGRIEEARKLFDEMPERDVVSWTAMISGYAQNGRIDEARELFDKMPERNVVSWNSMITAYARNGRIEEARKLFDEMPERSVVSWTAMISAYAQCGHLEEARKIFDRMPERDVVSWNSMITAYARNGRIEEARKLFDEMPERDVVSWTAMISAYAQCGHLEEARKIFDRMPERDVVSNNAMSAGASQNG

In the case of AUUAAACGUGA (ssRNA) [IR-rpoA-A], the Kd in series [1] (label: 5' IRDye 800CW) came to 191 nM; in series [2] (label: 5' IRDye 800CW), 120 nM; in series [3] (label: 5' IRDye 800CW), 206 nM; in series [4] (label: 5' IRDye 800CW), 74.5 nM; in series [5] (label: 5' IRDye 800CW) it was 495 nM.
For AUUAGACGUGA (ssRNA) [Cy5-rpoA-G], the Kd came out at 102 nM in series [1] (label: 5' Cy5); 89.3 nM in series [2] (label: 5' Cy5); 90.3 nM in series [3] (label: 5' Cy5); 69.1 nM in series [4] (label: 5' Cy5); 32.5 nM in series [5] (label: 5' Cy5).
On the same counts, the results for AUUACACGUGA (ssRNA) [Cy5-rpoA] are 74.7 nM, 67.8 nM, 113 nM, 49.7 nM and 402 nM.
Regarding AUUAUACGUGA (ssRNA) [IR-rpoA-U], the Kd in series [1] (label: 5' IRDye 800CW) turned out to be 97.3 nM; in series [2] (label: 5' IRDye 800CW), 40.8 nM; in series [3] (label: 5' IRDye 800CW), 317 nM; in series [4] (label: 5' IRDye 800CW), 67 nM; in series [5] (label: 5' IRDye 800CW) it was 408 nM.

The values are drawn from paper PMC8809517, “Cofactor-independent RNA editing by a synthetic S-type PPR protein”.
